Source: publication PMC11786531

Target: heparan sulfate proteoglycans
Assay: SPR competition (HSPG with LF or LF mutant flowed over PEDV S protein immobilised on a CM5 chip)
Details: parent: est. 5.0; read off a plot

Substance | response [RU]
Lactoferrin (from UniProt P14632) G1607L | 3.5
Lactoferrin (from UniProt P14632) P1963L | 69
Lactoferrin (from UniProt P14632) P1641L | 69
